This is an account of results in patent US20230183713A1, “SITE-SPECIFIC RECOMBINASES FOR EFFICIENT AND SPECIFIC GENOME EDITING” (TECHNISCHE UNIVERSITÄt DRESDEN, published 2023).

Series [1] has as its target T1, Cre recombinase monomer with Q311R mutation.
T1 chain: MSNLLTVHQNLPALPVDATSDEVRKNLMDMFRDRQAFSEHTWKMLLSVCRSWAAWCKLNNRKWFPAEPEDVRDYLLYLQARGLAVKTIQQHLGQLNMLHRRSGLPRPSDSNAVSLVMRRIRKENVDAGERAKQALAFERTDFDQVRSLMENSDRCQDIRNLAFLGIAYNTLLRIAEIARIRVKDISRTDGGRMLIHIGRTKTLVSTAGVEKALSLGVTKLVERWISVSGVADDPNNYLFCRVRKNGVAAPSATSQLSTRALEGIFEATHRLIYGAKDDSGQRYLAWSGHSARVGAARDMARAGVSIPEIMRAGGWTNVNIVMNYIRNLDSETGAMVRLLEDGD

The target in series [2] is T2, Cre recombinase monomer with Y324A mutation.
T2 chain: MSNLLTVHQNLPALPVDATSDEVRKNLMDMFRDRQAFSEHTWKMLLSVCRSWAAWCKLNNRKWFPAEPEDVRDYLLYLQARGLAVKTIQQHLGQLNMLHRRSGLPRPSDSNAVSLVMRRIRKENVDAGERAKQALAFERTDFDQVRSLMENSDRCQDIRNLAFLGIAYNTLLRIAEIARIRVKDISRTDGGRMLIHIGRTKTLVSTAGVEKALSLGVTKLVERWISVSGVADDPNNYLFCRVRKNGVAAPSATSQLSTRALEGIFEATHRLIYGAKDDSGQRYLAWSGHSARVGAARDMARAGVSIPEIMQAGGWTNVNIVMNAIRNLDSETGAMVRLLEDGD

In series [3] the target is T3, Cre recombinase monomer with W315L mutation.
T3 chain: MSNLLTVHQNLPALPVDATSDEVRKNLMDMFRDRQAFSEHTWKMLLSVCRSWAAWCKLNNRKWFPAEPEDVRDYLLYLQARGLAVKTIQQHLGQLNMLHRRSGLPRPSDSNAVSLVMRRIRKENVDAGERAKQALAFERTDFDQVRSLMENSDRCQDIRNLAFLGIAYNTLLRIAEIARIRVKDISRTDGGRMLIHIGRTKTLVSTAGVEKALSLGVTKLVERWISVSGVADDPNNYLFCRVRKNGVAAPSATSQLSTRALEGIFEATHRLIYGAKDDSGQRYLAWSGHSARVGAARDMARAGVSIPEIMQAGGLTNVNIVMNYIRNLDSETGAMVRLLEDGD

Series [4] has as its target T4, Cre recombinase monomer with W315C mutation.
T4 chain: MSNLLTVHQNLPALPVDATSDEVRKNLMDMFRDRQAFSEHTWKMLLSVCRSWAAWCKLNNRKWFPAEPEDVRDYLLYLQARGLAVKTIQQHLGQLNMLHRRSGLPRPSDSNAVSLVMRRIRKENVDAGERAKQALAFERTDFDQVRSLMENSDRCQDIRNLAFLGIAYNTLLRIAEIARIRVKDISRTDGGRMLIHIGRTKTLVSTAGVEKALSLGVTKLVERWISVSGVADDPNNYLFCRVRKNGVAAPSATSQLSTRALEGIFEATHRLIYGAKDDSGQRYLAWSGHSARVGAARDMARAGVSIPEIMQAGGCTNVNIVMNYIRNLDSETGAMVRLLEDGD

The target of series [5] is T5, Cre recombinase monomer with E176Y mutation.
T5 chain: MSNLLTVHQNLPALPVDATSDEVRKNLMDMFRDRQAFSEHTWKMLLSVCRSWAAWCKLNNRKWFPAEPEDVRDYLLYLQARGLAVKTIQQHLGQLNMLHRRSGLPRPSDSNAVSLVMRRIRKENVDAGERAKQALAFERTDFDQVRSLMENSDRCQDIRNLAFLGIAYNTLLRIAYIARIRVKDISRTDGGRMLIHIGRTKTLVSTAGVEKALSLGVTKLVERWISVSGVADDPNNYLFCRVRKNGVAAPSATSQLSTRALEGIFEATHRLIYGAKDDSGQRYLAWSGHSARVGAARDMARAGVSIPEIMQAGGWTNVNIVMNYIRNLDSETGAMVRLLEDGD

For series [6], the target named is T6, Cre recombinase monomer with E176M mutation.
T6 chain: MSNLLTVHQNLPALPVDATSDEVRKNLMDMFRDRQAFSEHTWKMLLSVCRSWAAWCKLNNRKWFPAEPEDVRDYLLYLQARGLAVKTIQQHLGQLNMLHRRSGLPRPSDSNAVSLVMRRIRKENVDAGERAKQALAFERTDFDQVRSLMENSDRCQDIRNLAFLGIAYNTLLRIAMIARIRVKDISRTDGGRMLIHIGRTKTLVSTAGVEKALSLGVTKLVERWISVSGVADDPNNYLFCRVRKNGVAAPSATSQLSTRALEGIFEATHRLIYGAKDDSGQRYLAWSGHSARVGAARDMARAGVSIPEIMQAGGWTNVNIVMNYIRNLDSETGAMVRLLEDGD

Series [7] deals with T7, Cre recombinase monomer with E176V mutation.
T7 chain: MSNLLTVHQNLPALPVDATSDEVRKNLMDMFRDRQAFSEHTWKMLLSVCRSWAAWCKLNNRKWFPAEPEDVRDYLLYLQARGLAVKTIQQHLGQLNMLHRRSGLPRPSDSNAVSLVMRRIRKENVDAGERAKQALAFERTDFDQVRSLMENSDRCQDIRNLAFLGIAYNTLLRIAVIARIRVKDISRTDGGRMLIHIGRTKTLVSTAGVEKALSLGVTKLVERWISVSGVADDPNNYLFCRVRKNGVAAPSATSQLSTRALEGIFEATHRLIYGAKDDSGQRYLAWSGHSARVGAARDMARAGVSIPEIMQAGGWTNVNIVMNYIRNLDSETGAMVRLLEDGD

Series [8] concerns the target T8, Cre recombinase monomer with E176H mutation.
T8 chain: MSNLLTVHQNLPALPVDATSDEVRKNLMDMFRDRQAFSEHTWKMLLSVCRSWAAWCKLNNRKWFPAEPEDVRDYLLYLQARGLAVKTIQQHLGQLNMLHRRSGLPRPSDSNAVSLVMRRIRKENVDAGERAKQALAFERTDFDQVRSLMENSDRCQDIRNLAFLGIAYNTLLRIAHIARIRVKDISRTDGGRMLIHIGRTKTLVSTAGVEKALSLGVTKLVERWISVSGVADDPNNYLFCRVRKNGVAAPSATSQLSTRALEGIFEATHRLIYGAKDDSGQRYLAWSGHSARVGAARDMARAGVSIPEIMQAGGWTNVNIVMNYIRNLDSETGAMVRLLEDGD

B1: Cre recombinase monomer with K201N mutation (protein)
chain: MSNLLTVHQNLPALPVDATSDEVRKNLMDMFRDRQAFSEHTWKMLLSVCRSWAAWCKLNNRKWFPAEPEDVRDYLLYLQARGLAVKTIQQHLGQLNMLHRRSGLPRPSDSNAVSLVMRRIRKENVDAGERAKQALAFERTDFDQVRSLMENSDRCQDIRNLAFLGIAYNTLLRIAEIARIRVKDISRTDGGRMLIHIGRTNTLVSTAGVEKALSLGVTKLVERWISVSGVADDPNNYLFCRVRKNGVAAPSATSQLSTRALEGIFEATHRLIYGAKDDSGQRYLAWSGHSARVGAARDMARAGVSIPEIMQAGGWTNVNIVMNYIRNLDSETGAMVRLLEDGD
B1: the “Median dimer activity (recombination on loxP)” value (“Median dimer activity” below) in series [1] is given as 95%; in series [2], 26%.

B2: Cre recombinase monomer with H289E mutation (protein)
chain: MSNLLTVHQNLPALPVDATSDEVRKNLMDMFRDRQAFSEHTWKMLLSVCRSWAAWCKLNNRKWFPAEPEDVRDYLLYLQARGLAVKTIQQHLGQLNMLHRRSGLPRPSDSNAVSLVMRRIRKENVDAGERAKQALAFERTDFDQVRSLMENSDRCQDIRNLAFLGIAYNTLLRIAEIARIRVKDISRTDGGRMLIHIGRTKTLVSTAGVEKALSLGVTKLVERWISVSGVADDPNNYLFCRVRKNGVAAPSATSQLSTRALEGIFEATHRLIYGAKDDSGQRYLAWSGESARVGAARDMARAGVSIPEIMQAGGWTNVNIVMNYIRNLDSETGAMVRLLEDGD
Consider B2, for which the “Median dimer activity” value is 33% in series [3] and 94% in series [1].

B3: Cre recombinase monomer with H289W mutation (protein)
chain: MSNLLTVHQNLPALPVDATSDEVRKNLMDMFRDRQAFSEHTWKMLLSVCRSWAAWCKLNNRKWFPAEPEDVRDYLLYLQARGLAVKTIQQHLGQLNMLHRRSGLPRPSDSNAVSLVMRRIRKENVDAGERAKQALAFERTDFDQVRSLMENSDRCQDIRNLAFLGIAYNTLLRIAEIARIRVKDISRTDGGRMLIHIGRTKTLVSTAGVEKALSLGVTKLVERWISVSGVADDPNNYLFCRVRKNGVAAPSATSQLSTRALEGIFEATHRLIYGAKDDSGQRYLAWSGWSARVGAARDMARAGVSIPEIMQAGGWTNVNIVMNYIRNLDSETGAMVRLLEDGD
On to B3, for which the “Median dimer activity” value in series [1] worked out at 95%; in series [4], 87%.

B4: Cre recombinase monomer with R173M mutation (protein)
chain: MSNLLTVHQNLPALPVDATSDEVRKNLMDMFRDRQAFSEHTWKMLLSVCRSWAAWCKLNNRKWFPAEPEDVRDYLLYLQARGLAVKTIQQHLGQLNMLHRRSGLPRPSDSNAVSLVMRRIRKENVDAGERAKQALAFERTDFDQVRSLMENSDRCQDIRNLAFLGIAYNTLLMIAEIARIRVKDISRTDGGRMLIHIGRTKTLVSTAGVEKALSLGVTKLVERWISVSGVADDPNNYLFCRVRKNGVAAPSATSQLSTRALEGIFEATHRLIYGAKDDSGQRYLAWSGHSARVGAARDMARAGVSIPEIMQAGGWTNVNIVMNYIRNLDSETGAMVRLLEDGD
As for B4, the “Median dimer activity” value in series [5] is on record as 27%; in series [6] it was 39%; in series [1], 96%; in series [7], 75%; in series [8] it was 75%.
